{
  "source": "paper doi:10.1101/767665",
  "key": {"[1]": {"target": "heliorhodopsin 48C12 (actinobacterium (fosmid from freshwater lake Kinneret))", "test": "crystal structure"}, "[2]": {"target": "heliorhodopsin 48C12 (actinobacterium (fosmid from freshwater lake Kinneret))", "test": "crystal structure", "remark": "listed apart in the source"}},
  "note": "Read-outs that look alike come from different tables or passages of the source.",
  "data": [
    {"substance": "heliorhodopsin 48C12 (from UniProt A0A2R4S913 1-256) (natural protein)", "values": [
      {"measurement": "stoichiometry N", "setting": "[1]", "value": 2},
      {"measurement": "stoichiometry N", "setting": "[2]", "value": 2}
    ]}
  ]
}
